According to article PMC9482650, “Quantitative fragmentomics allow affinity mapping of interactomes” (Nature Communications, 2022):

B1: SLC1A5, Q15758 (peptide)
chain: TVASEKESVM
B2: HPV16-E6, P03126 (peptide)
chain: SSRTRRETQL
B3: VANGL1, Q8TAA9 (peptide)
chain: VLRLQSETSV
B4: KIR3DL3, Q8N743 (peptide)
chain: PKTPPTDTSV

molecular target: T1, APBA2_1, Q99767; assay: holdup assay; parameters: key: below the threshold = too weak to quantify, mostly under pKd 3.1 to 4; conditions: plain residues with an end cap or a label only (N-terminal biotin on a linker: ttds)
T1 sequence (Q99767 563-664, limits assumed, looked up): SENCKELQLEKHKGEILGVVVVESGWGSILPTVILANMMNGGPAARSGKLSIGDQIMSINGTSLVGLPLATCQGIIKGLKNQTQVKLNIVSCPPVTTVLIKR

Binder | pKd
B1 | below the threshold
B2 | below the threshold
B3 | below the threshold
B4 | below the threshold

molecular target: Inadl_5, Q8NI35; assay: holdup assay; parameters: key: below the threshold = too weak to quantify, mostly under pKd 3.1 to 4; conditions: plain residues with an end cap or a label only (N-terminal biotin on a linker: ttds)
Sequence (Q8NI35 673-780): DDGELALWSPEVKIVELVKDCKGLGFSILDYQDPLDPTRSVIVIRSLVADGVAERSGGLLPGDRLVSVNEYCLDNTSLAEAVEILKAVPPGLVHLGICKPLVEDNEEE

Binder | pKd
B1 | below the threshold
B2 | below the threshold
B3 | below the threshold
B4 | below the threshold

molecular target: T2, NHERF3_4, Q5T2W1; assay: holdup assay; parameters: key: below the threshold = too weak to quantify, mostly under pKd 3.1 to 4; conditions: plain residues with an end cap or a label only (N-terminal biotin on a linker: ttds)
T2 sequence (Q5T2W1 373-468, limits assumed, looked up): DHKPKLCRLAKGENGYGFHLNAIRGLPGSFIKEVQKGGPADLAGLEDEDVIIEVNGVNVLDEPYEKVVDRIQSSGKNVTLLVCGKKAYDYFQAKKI

Binder | pKd
B1 | below the threshold
B2 | 3.89
B3 | below the threshold
B4 | below the threshold

molecular target: DLG1_1, Q12959; assay: holdup assay; parameters: key: below the threshold = too weak to quantify, mostly under pKd 3.1 to 4; conditions: plain residues with an end cap or a label only (N-terminal biotin on a linker: ttds)

Binder | pKd
B1 | below the threshold
B2 | 4.67
B3 | 4.45
B4 | 4.02

molecular target: T3, LIN7A, O14910; assay: holdup assay; parameters: key: below the threshold = too weak to quantify, mostly under pKd 3.1 to 4; conditions: plain residues with an end cap or a label only (N-terminal biotin on a linker: ttds)
T3 sequence (O14910 103-200, limits assumed, looked up): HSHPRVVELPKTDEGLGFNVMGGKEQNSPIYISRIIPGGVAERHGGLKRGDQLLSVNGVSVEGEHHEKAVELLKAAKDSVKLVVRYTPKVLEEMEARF

Binder | pKd
B1 | below the threshold
B2 | below the threshold
B3 | below the threshold
B4 | below the threshold

molecular target: T4, ARHGEF11, O15085; assay: holdup assay; parameters: key: below the threshold = too weak to quantify, mostly under pKd 3.1 to 4; conditions: plain residues with an end cap or a label only (N-terminal biotin on a linker: ttds)
T4 sequence (O15085 42-136, limits assumed, looked up): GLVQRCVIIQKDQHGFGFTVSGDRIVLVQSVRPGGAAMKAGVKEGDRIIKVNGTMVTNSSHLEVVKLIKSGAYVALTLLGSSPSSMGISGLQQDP

Binder | pKd
B1 | 3.56
B2 | 4.15
B3 | below the threshold
B4 | below the threshold

molecular target: Inadl_1, Q8NI35; assay: holdup assay; parameters: key: below the threshold = too weak to quantify, mostly under pKd 3.1 to 4; conditions: plain residues with an end cap or a label only (N-terminal biotin on a linker: ttds)
Sequence (Q8NI35 113-229): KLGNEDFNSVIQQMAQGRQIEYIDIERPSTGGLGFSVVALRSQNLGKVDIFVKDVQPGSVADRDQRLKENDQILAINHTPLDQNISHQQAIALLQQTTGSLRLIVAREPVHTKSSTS

Binder | pKd
B1 | 3.64
B2 | below the threshold
B3 | below the threshold
B4 | 3.57

molecular target: T5, PCLO, Q9Y6V0; assay: holdup assay; parameters: key: below the threshold = too weak to quantify, mostly under pKd 3.1 to 4; conditions: plain residues with an end cap or a label only (N-terminal biotin on a linker: ttds)
T5 sequence (Q9Y6V0 4491-4600, limits assumed, looked up): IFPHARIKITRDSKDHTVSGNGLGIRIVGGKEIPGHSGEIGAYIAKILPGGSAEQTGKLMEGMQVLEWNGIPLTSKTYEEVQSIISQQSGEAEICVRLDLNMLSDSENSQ

Binder | pKd
B1 | below the threshold
B2 | below the threshold
B3 | below the threshold
B4 | below the threshold

molecular target: T6, RAPGEF6, Q8TEU7; assay: holdup assay; parameters: key: below the threshold = too weak to quantify, mostly under pKd 3.1 to 4; conditions: plain residues with an end cap or a label only (N-terminal biotin on a linker: ttds)
T6 sequence (Q8TEU7 525-625, limits assumed, looked up): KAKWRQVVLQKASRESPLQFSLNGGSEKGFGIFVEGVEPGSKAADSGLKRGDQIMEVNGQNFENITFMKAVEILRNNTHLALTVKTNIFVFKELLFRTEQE

Binder | pKd
B1 | below the threshold
B2 | 3.66
B3 | below the threshold
B4 | below the threshold

molecular target: GRIP2_6, Q9C0E4; assay: holdup assay; parameters: key: below the threshold = too weak to quantify, mostly under pKd 3.1 to 4; conditions: plain residues with an end cap or a label only (N-terminal biotin on a linker: ttds)
Sequence (Q9C0E4 648-740): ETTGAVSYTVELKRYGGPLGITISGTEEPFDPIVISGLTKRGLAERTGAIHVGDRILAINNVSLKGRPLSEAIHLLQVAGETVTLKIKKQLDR

Binder | pKd
B1 | below the threshold
B2 | below the threshold
B3 | below the threshold
B4 | below the threshold

molecular target: FRMPD4, Q14CM0; assay: holdup assay; parameters: key: below the threshold = too weak to quantify, mostly under pKd 3.1 to 4; conditions: plain residues with an end cap or a label only (N-terminal biotin on a linker: ttds)
Sequence (Q14CM0 67-160): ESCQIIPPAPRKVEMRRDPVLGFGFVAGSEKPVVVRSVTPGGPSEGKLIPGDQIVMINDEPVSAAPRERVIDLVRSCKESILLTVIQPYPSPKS

Binder | pKd
B1 | below the threshold
B2 | 3.83
B3 | below the threshold
B4 | 3.78

molecular target: DLG4_3, P78352; assay: holdup assay; parameters: key: below the threshold = too weak to quantify, mostly under pKd 3.1 to 4; conditions: plain residues with an end cap or a label only (N-terminal biotin on a linker: ttds)
Sequence (P78352 306-403): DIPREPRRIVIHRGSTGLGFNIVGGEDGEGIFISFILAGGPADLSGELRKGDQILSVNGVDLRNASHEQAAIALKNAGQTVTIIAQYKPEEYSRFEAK

Binder | pKd
B1 | below the threshold
B2 | 5.06
B3 | 4.51
B4 | below the threshold

molecular target: T7, DFNB31_2, Q9P202; assay: holdup assay; parameters: key: below the threshold = too weak to quantify, mostly under pKd 3.1 to 4; conditions: plain residues with an end cap or a label only (N-terminal biotin on a linker: ttds)
T7 sequence (Q9P202 274-371, limits assumed, looked up): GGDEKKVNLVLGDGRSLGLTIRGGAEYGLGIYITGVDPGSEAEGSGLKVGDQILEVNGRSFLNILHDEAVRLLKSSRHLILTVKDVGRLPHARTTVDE

Binder | pKd
B1 | below the threshold
B2 | below the threshold
B3 | below the threshold
B4 | below the threshold

molecular target: T8, NHERF3_1, Q5T2W1; assay: holdup assay; parameters: key: below the threshold = too weak to quantify, mostly under pKd 3.1 to 4; conditions: plain residues with an end cap or a label only (N-terminal biotin on a linker: ttds)
T8 sequence (Q5T2W1 4-100, limits assumed, looked up): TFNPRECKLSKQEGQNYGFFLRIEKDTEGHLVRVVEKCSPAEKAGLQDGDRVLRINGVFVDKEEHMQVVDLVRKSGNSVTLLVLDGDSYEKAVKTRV

Binder | pKd
B1 | 4.42
B2 | 5.62
B3 | 3.98
B4 | below the threshold

molecular target: T9, DLG3_3, Q92796; assay: holdup assay; parameters: key: below the threshold = too weak to quantify, mostly under pKd 3.1 to 4; conditions: plain residues with an end cap or a label only (N-terminal biotin on a linker: ttds)
T9 sequence (Q92796 374-475, limits assumed, looked up): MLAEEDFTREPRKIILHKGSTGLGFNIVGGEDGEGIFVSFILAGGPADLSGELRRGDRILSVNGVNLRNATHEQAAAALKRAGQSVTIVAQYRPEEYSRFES

Binder | pKd
B1 | 3.66
B2 | 4.88
B3 | 4.7
B4 | below the threshold

molecular target: Inadl_6, Q8NI35; assay: holdup assay; parameters: key: below the threshold = too weak to quantify, mostly under pKd 3.1 to 4; conditions: plain residues with an end cap or a label only (N-terminal biotin on a linker: ttds)
Sequence (Q8NI35 1058-1167): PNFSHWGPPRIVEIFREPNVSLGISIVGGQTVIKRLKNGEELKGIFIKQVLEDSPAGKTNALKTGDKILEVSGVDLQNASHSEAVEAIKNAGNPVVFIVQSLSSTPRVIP

Binder | pKd
B1 | below the threshold
B2 | 3.49
B3 | below the threshold
B4 | below the threshold

molecular target: NHERF2_2, Q15599; assay: holdup assay; parameters: key: below the threshold = too weak to quantify, mostly under pKd 3.1 to 4; conditions: plain residues with an end cap or a label only (N-terminal biotin on a linker: ttds)
Sequence (Q15599 142-238): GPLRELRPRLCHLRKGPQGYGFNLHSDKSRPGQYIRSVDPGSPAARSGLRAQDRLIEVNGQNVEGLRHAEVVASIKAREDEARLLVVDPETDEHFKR

Binder | pKd
B1 | 3.51
B2 | 4.19
B3 | 3.75
B4 | below the threshold

molecular target: Inadl_10, Q8NI35; assay: holdup assay; parameters: key: below the threshold = too weak to quantify, mostly under pKd 3.1 to 4; conditions: plain residues with an end cap or a label only (N-terminal biotin on a linker: ttds)
Sequence (Q8NI35 1673-1763): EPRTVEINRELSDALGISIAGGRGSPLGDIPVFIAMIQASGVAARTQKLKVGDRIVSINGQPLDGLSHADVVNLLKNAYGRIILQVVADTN

Binder | pKd
B1 | below the threshold
B2 | below the threshold
B3 | below the threshold
B4 | below the threshold

molecular target: MAGI1_2, Q96QZ7; assay: holdup assay; parameters: key: below the threshold = too weak to quantify, mostly under pKd 3.1 to 4; conditions: plain residues with an end cap or a label only (N-terminal biotin on a linker: ttds)
Sequence (Q96QZ7 456-580): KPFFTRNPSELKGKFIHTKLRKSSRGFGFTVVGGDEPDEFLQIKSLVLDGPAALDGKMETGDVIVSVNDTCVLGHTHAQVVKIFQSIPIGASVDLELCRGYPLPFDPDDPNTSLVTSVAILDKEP

Binder | pKd
B1 | below the threshold
B2 | 5.91
B3 | 4.37
B4 | below the threshold

molecular target: GRASP, Q7Z6J2; assay: holdup assay; parameters: key: below the threshold = too weak to quantify, mostly under pKd 3.1 to 4; conditions: plain residues with an end cap or a label only (N-terminal biotin on a linker: ttds)
Sequence (Q7Z6J2 96-193): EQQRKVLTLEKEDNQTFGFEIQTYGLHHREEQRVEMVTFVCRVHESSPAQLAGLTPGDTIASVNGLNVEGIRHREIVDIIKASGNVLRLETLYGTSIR

Binder | pKd
B1 | below the threshold
B2 | below the threshold
B3 | below the threshold
B4 | below the threshold

molecular target: GORASP2, Q9H8Y8; assay: holdup assay; parameters: key: below the threshold = too weak to quantify, mostly under pKd 3.1 to 4; conditions: plain residues with an end cap or a label only (N-terminal biotin on a linker: ttds)

Binder | pKd
B1 | below the threshold
B2 | 4.02
B3 | below the threshold
B4 | 4.04

molecular target: DLG1_3, Q12959; assay: holdup assay; parameters: key: below the threshold = too weak to quantify, mostly under pKd 3.1 to 4; conditions: plain residues with an end cap or a label only (N-terminal biotin on a linker: ttds)

Binder | pKd
B1 | 3.55
B2 | 4.7
B3 | 4.63
B4 | below the threshold

molecular target: T10, PDZRN3_1, Q9UPQ7; assay: holdup assay; parameters: key: below the threshold = too weak to quantify, mostly under pKd 3.1 to 4; conditions: plain residues with an end cap or a label only (N-terminal biotin on a linker: ttds)
T10 sequence (Q9UPQ7 244-349, limits assumed, looked up): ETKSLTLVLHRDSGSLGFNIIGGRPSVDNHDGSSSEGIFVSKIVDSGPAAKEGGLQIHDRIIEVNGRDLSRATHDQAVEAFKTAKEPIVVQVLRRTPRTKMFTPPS

Binder | pKd
B1 | 3.61
B2 | 5.66
B3 | 4.4
B4 | below the threshold

molecular target: T11, SYNJ2BP, P57105; assay: holdup assay; parameters: key: below the threshold = too weak to quantify, mostly under pKd 3.1 to 4; conditions: plain residues with an end cap or a label only (N-terminal biotin on a linker: ttds)
T11 sequence (P57105 8-110, limits assumed, looked up): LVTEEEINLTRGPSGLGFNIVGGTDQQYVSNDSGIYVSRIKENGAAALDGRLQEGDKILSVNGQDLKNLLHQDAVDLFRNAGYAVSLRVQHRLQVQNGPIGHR

Binder | pKd
B1 | 3.51
B2 | 5.18
B3 | 5.41
B4 | 4.44

molecular target: T12, DLG3_1, Q92796; assay: holdup assay; parameters: key: below the threshold = too weak to quantify, mostly under pKd 3.1 to 4; conditions: plain residues with an end cap or a label only (N-terminal biotin on a linker: ttds)
T12 sequence (Q92796 125-227, limits assumed, looked up): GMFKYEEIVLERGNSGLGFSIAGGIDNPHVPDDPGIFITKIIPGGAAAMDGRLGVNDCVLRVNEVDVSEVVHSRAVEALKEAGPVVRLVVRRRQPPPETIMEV

Binder | pKd
B1 | below the threshold
B2 | 3.96
B3 | 3.96
B4 | 3.69
